Measured values as given in US8846873B2, “Antibodies directed to GPNMB and uses thereof” (Celldex Therapeutics, Inc., priority 2004, dated 2014).
Entries after “also recorded” stand apart in the source; their conditions may differ.

Assays:
[1] = tested on: SF-268; test: Flow cytometry (FACS) of CR011 surface staining; type: binding, human
Procedure: (§1) Flow Cytometry: Quantitative analysis of CG56972 expression on the surface of cell lines was determined by flow cytometry (FACS). […] Cells were fixed in 1% paraformaldehyde/PBS and examined on a Becton Dickinson FACSCalibur flow cytometer. Data analysis was performed with Becton Dickinson Cell Quest software version 3.3 and the geometric mean fluorescence intensity ratio (GMR) was determined for each cell type.

[2] = tested on: SF-539; test: Flow cytometry (FACS) of CR011 surface staining; type: binding, human
Procedure: as §1

[3] = tested on: U-118-MG; test: Flow cytometry (FACS) of CR011 surface staining; type: binding, human
Procedure: as §1

[4] = tested on: XF-498; test: Flow cytometry (FACS) of CR011 surface staining; type: binding, human
Procedure: as §1

[5] = tested on: SNB-78; test: Flow cytometry (FACS) of CR011 surface staining; type: binding, human
Procedure: as §1

[6] = tested on: lymphoma or leukemia cell lines; test: Clonogenic assay with 1.15.1-AE (methylcellulose); type: cell-based; conditions: various concentrations
Procedure: Lymphoma or leukemia cell lines were mixed with methylcellulose base media (R&D Systems, USA) and in various concentrations of unconjugated and Auristatin E-conjugated 1.15.1 antibody before plating onto 6-well tissue culture plates (Becton Dickinson, Franklin Lakes, N.J., USA). […] Plates were incubated at 37° C. and examined daily. On days 14-18, colonies on the plates were counted.

[7] = tested on: SK-Mel-2 cells; test: ADCC assay with human PBMC (DELFIA EuTDA cytotoxicity); type: cell-based; conditions: human PBMC 30 to 100 fold; 2, 5, 10 μg/200 μl; listed as CR011 IgG2
Procedure: We next examined whether the CR0111gG1 mAb could induce ADCC in SK-MEL-2 cells in culture in the presence of human PBMC. Human PBMC were isolated from whole blood using a Ficoll-Plaque. Briefly, in a 50 mL tube, 15 mL of PBS was added to 20 mL of whole blood which was underlayed with 10 mL Ficoll-Plaque and the tube was centrifuged at 2000 RPM. Mononuclear cells were collected from the interface and washed 3 times with PBS. The ADCC assay was carried out in a 96 well plate using a fluorescence assay for cytolysis from Perkin-Elmer (DELFIA EuTDA Cytotoxic assay). The procedure is based on loading target cells with a fluorescence enhancing ligand (BATDA, bis (acetoxymethyl) terpyridine—dicarboxylate). The hydrophic ligand penetrates the membrane quickly. Within the cell the esterbonds are hydrolyzed to form a hydrophilic ligand (TDA, terpyridine—dicarboxylic acid) which can no longer pass through the membrane. After cytolysis the ligand is released and introduced to the Europium solution. The europium and the ligand form a highly fluorescent and stable chelate (EuTDA). Fluorescence intensity are recorded using excitation and emission wavelengths as λex=340 nm and λem=613 nm, respectively.

[8] = tested on: TK10; test: Anti GPNMB antibody mediated indirect cell killing (saporin secondary antibody-toxin conjugate, colony count); type: cell-based; conditions: primary antibody 50 ng/mL plus goat anti-human IgG-saporin 100 ng/well
Procedure: UACC-62, a GPNMB antigen expressing cell line, and TK10, a non-expressing cell line were plated onto flat bottom 96-well tissue culture plates (Becton Dickinson, Franklin Lakes, N.J., USA) at a density of 3000 cells per well. Once the cells reached ˜25% confluency, 100 ng/well of secondary antibody-toxin conjugate (goat anti-human IgG-saporin; Advanced Targeting Systems, San Diego, USA, HUM-ZAP; cat. # IT-22) was added. Anti-GPNMB MAbs 2.10.2, 2.22.1, 1.15.1 or isotype control mAb (pK16.3) were added to each well at a final concentration of 10 or 50 ng/mL. An anti-EGFR monoclonal antibody (MS-269-PABX, NeoMarkers, Fremont, Calif., USA) was used as a positive primary antibody control. Chemotherapy reagent 5-FU at 600 uM was used as a positive reagent control. On day 5, the cells were trypsinized, transferred to 6-well tissue culture plates and incubated at 37° C. Plates were examined daily and between 8-10 days, all plates were Giemsa stained and colonies were counted.

[9] = tested on: CG56972-expressing cells; test: Internalization of cell surface bound antibodies (flow cytometry); type: cell-based; conditions: incubation with CG56972-expressing cells
Procedure: Internalization of cell surface bound antibodies was assessed by a modified flow cytometry procedure. […] After washing cells, incubation was shifted to 37° C. for 1 hr to allow internalization of bound antibodies. Cells that remained on ice (total surface bound) or that were incubated at 37° C. […] Labeled cells were analyzed by flow cytometry as described above. The percentage of antibody internalized was determined using the GMRs and the following formula: Percent internalized=Total surface bound (4° C.)−Total surface bound (37° C.)/Total surface bound (4° C.)×100

[10] = tested on: melanoma cell lines; test: Clonogenic assay with 1.15.1-AE; type: cell-based, human; conditions: various concentrations
Procedure: Melanoma cell lines were plated onto flat bottom 96-well tissue culture plates (Becton Dickinson, Franklin Lakes, N.J., USA). On day 2 or when cells reach ˜25% confluency, various concentrations of unconjugated and Auristatin E-conjugated 1.15.1 were added to cells. MAb 2.6.2-AE was also used as a conjugated isotype control in this study. On day 5, the cells were trypsinized, transferred to 6-well tissue culture plates and incubated at 37° C. Plates were examined daily. On days 8-10, all plates were Giemsa stained and colonies on the plates were counted.

[11] = tested on: TK-10 cells; test: Apoptosis analysis (Annexin V-FITC / propidium iodide); type: cell-based, human; conditions: TK-10, 48 hour, 1000 ng/mL
Procedure: (§2) Briefly, cells were pulsed at the indicated times with 30 μM of bromodeoxyuridine (BrdU, Sigma) for 30 min, harvested, fixed and permeabilized in methanol. Nascent DNA synthesis was detected by anti-bromodeoxyuridine-FITC (BD Biosciences, San Jose, Calif.) staining. Total DNA content was detected using propidium iodide (PI, Sigma). For apoptosis analysis, cells were treated as above and labeled with Annexin V-FITC followed by propidium iodide exclusion using the Annexin V-FITC Apoptosis Detection kit I (BD PharMingen, San Diego, Calif.) according to the manufacturer's protocols. Flow cytometry (as described in the previous Example) was used to assay both cell cycle and apoptosis studies.
(§3) To investigate this possibility, analysis of apoptosis using Annexin-V surface binding and loss of propidium iodide (PI) exclusion was performed.

[12] = tested on: SK-Mel-2 cells; test: as above; type: cell-based, human; conditions: SK-Mel-2, 48 hour, 1000 ng/mL
Procedure: as §2, §3

[13] = tested on: CG56972-expressing cancer cell lines; test: Growth of CG56972-expressing cancer cell lines with naked CR011 or CR011 plus saporin-conjugated secondary antibody; type: cell-based; conditions: for effect on CG56972 expressing cells / growth, naked antibody: used directly
Source text: Fully human monoclonal antibodies (mAb)-IgG2 to CG56972/GPNMB, an antigen predominantly found on the surface of melanoma and brain tumor cells, were generated. The naked CR0111gG2 mAb (mAb 1.15) had no effect on CG56972 expressing cells either in vitro or in vivo. Thus we examined whether isotype switching from an IgG2 to an IgG1 might enable the mAb to kill human melanoma cells through ADCC effector functions.

B1: Mab1.15.1 (protein, listed as Homo sapiens)
chain: QVQLQESGPGLVKPSQTLSLTCTVSGGSISSFNYYWSWIRHHPGKGLEWIGYIYYSGSTYSNPSLKSRVTISVDTSKNQFSLTLSSVTAADTAVYYCARGYNWNYFDYWGQGTLVTVSSA
With B1 the “surface staining above control mAb background” value [1] was “around 1.5 fold”, the “surface staining above isotype control mAb background” value [2] was “at least 1.5 fold” and the “surface staining above isotype control mAb background” value [3] was “at least 1.5 fold”. The “surface staining above isotype control mAb background” value [4] was “at least 1.5 fold”, the “surface staining above isotype control mAb background” value [5] was “at least 1.5 fold” and the “effect on growth of all antigen positive hematopoietic cell lines” value [6] was “no effect on growth”. For the same molecule, the “ADCC / cytolysis of SK-MEL-2 cells” value [7] was “do not cause ADCC; also recorded: did not show any cytolysis”, the “cell death in GPNMB negative TK10 cells” value [8] was “less than 24%” and the internalization [9] was “internalized”. The “effect on growth of all the melanoma cell lines tested” value [10] was “no effect on growth”, the “% AnnV+/PI+ UR” value [11] was 0.34% and the “% AnnV+/PI− LR” value [11] was 0.55%. The “% AnnV−/PI+ UL” value [11] was 0.83%, the “% AnnV+/PI+ UR” value [12] was 0.45% and the “% AnnV+/PI− LR” value [12] was 4.74%. For the same molecule, the “% AnnV−/PI+ UL” value [12] was 0.36%, the “growth of CG56972-expressing cancer cells” value ([13]; combined with saporin-conjugated secondary antibody) was “could specifically inhibit the growth” and the “effect on CG56972 expressing cells / growth, naked antibody” value [13] was “no effect”. For the same molecule, the “effect on CG56972 expressing cells / growth, naked antibody” value ([13]; listed as CR011) was “did not inhibit the growth”.
